Data: patent publication US20160201045A1, “Endo-xylanase and Coding Gene and Use Thereof” (SHANGHAI INSTITUTES FOR BIOLOGICAL SCIENCES CHINESE ACADEMY …, priority 2013, published 2016)

Key:
[1] = Residual activity under feed additive conditions (acidic pH, 37° C.); assay type: biochemical; settings: pH 4-5, 37° C., 15-60 minutes
Protocol: (§1) In a 100 μl reaction system, birch xylan was added to a final concentration of 1% (w/w), and Na2HPO4/NaH2PO4 buffer (pH7.0) was added to a final concentration of 100 mM. A suitable amount of enzyme solution diluted by the abovementioned buffer was added to the reaction system for reaction at 50[…] for 10 minutes. 100 μl DNS were added to stop the reaction. For the control, 100 μl DNS were firstly added to the above reaction system before adding the enzyme solution. The reaction mixtures were subjected to a boiled water bath for 5 minutes to develop color. Absorbance value at 540 nm was detected by a microplate reader. After subtracting the absorbance value of the control from that of the sample, the enzymatic activity unit (U) was calculated based on the standard curve.
As a feed additive, xylanase is required to retain its enzymatic activity in a pH environment of about 4 due to the acidic environment in the stomach of livestock, such as pig, and retain its enzymatic activity in a pH environment of about 6 due to the weak acidic environment in the digestive tract of chicken. Therefore, Xyl7 was tested for its residual enzymatic activity after treated in pH4 or pH5 at a 37° C. bath for 15, 30, 45 and 60 minutes. The residual enzymatic activity was a ratio between the specific activity of the enzyme obtained after various treatments and that of the un-treated enzyme.

[2] = Residual activity under pulp bleaching conditions (alkaline pH, high temperature); assay type: biochemical; settings: 50-70, pH8-9, one to two hours
Protocol: as §1, with “curve. […]” for “curve.”

B1: Xyl7: endo-1,4-β-xylanase of 505 amino acids, SEQ ID NO:2, from termite gut metagenome, expressed in E. coli with His tag (protein)
chain: MKKLIALSFIAAFFAPLFAQGPTWTTSTIQAYNGYDYELWNQNNAGTVSMKLTGDNGSGASAVGGTFTATWSNTQNVLFRSGKKWGSSSNQNHTQIGNMSINFAATWSSTDNVKMLGVYGWAYFTSANVPTKQENGTNASFSNQIEYYIIQDRGSYNPASGGTNAKKYGSATIDGIAYDFYVCDRINQPMLTGNGNFKQFFSVPQSASAHRTSGTISVSQHFNKWHELGMKMDGPLYEVAMKVESYTGSGSSNGSATVTKNLLTIGGTTPTPSSNSGGTTSSSSRASSSSRASSSSNAAVQATTCKTPLITYPTSTVPSDPYTACFKYTDDKCYVCKVENEGEFEGNMNTCGSGWVWDGTQIDNNLRDGYWYQEVPCPAGSSSSRSSSSSVAVSSSSRSSSSSVAASSSSRSSSSSASVSSSSEETPIRVLHTIPSKFRVRSLNNGALQIESNADVVLYLYDTKGKMAQKIEAPTGSSIVKLSVPAGIYIVRNVQTKEKLRVMVR
modifications: His tag; Intestinal tract metagenome of termite
[1]
  residual enzymatic activity in acidic environment: retain a sufficiently high enzymatic activity
[2]
  residual enzymatic activity at high temperature in alkaline environment: retain a sufficiently high enzymatic activity
